Source: patent US7927849B2, “Laccase enzyme and use thereof” (AB Enzymes OY, priority 2004, dated 2011)

Key:
[1] = Specific activity on syringaldazine; type: biochemical; conditions: 25 mM MES buffer, pH 5.5
Protocol: (§1) Specific activities of the purified Thielavia laccase were determined towards different laccase substrates.

[2] = Stain removal with laccases, grass; conditions: 60 min, pH 6
Protocol: (§2) The TaLcc1 (RF5598) and Denilite II Base laccase preparations were tested for their ability to remove stains. The following artificially soiled test cloths were used: grass soiling (Art. 164, EMPA Testmaterialen, Germany), tea soiling (Art. 167, EMPA Testmaterialen, Germany). The fabric was cut in 5.8×5.8 cm swatches. Laccase treatments were performed in LP-2 Launder Ometer as follows. About 5 g of soiled fabrics were loaded into 1.2 liter containers containing 150 ml Mc Ilvaine's citrate phosphate buffer pH 6 and the containers were temperated. Enzymes with or without the mediator (methyl syringate, DeniLite II Assist, Novozymes) were dosed as laccase activity units (Example 7). Enzyme dosage was 200 nkat/g and mediator dosage 10 mg/g of the weight of fabric, except at 40° C. also dosages of 20 nkat/g and 2 mg/g were used. The Launder Ometer was run at 40, 50 or 60° C. and pH 6 for 60 min. After that the swatches were carefully rinsed under running water and in shake flasks containing warm water and dried in the air.
(§3) The stain removal effect was evaluated by measuring the colour as reflectance values using L*a*b* color space coordinates (Example 7). The colour of the swatches was measured before and after the laccase treatment.

[3] = Isoelectric focusing (pI); type: physicochemical; conditions: pH range 3-9, ABTS staining
Protocol: Molecular weight of the Thielavia arenaria laccase (wt TaLcc1) was determined on SDS-PAGE according to Laemmli (1970). The gels used in the SDS-PAGE analysis were ready-made 12% Tris HCl gels (BioRad). Protein bands were visualized by staining with Coomassie Brilliant Blue (R 350; Pharmacia) and compared with molecular weight markers (Prestained Protein Marker Broad Range #7708S; New England BioLabs, Beverly, Mass.). The molecular weight of the Thielavia areanaria laccase was approximately 80 kDa. The isoelectric point of the laccase was determined with isoelectric focusing within the pH range of 3-9 (Pharmalyte IEF, Pharmacia) on a LKB 2117 Multiphor II Electrophoresis System (LKB Pharmacia, Bromma, Sweden) according to the manufacturer's instructions.
(§4) The purified recombinant Thielavia arenaria TaLcc1 was characterized in terms of pH optimum, thermal stability, and pI as described in Example 2. The molecular weight was determined by MALDI-TOF mass spectrometry on a Ultraflex™ time-of-flight instrument (BrukerDaltonics, Germany) as previously described (Palonen et al., 2003). The redox potential of TaLcc1 was also determined with a combined Pt-AgCl/KCl microelectrode at pH 5.0 according to Sigoillot et al (2004)

[4] = Specific activity on guaiacol; type: biochemical; conditions: 25 mM MES buffer, pH 5.5
Protocol: as §1

[5] = Decolorization of dyes; parameters: key: −: no visually detectable change; +: visually detectable fading of the colour; ++: considerable fading of the colour; +++: complete/almost complete decolorization; conditions: dye 12 mg/100 ml, 50° C., pH 6
Protocol: (§5) The TaLcc1 laccase preparation from strain RF5597 was tested for its ability to decolourize different dyes in the presence or absence of the methyl syringate mediator (Example 7). The experiments were carried out in 250 ml shake flasks containing 100 ml of dye dissolved in citrate phosphate buffer pH 6. Dye concentration 12 mg/100 ml was used. Enzyme was dosed 200 nkat (or 20 nkat) per 100 ml and the mediator 10 (or 1) mg per 100 ml. The shake flasks were incubated at 50° C. for 30, 90 and 150 minutes. Samples of 3.5 ml were taken in test tubes for visual evaluation.

[6] = Stain removal with laccases, tea; conditions: 60 min, pH 6
Protocol: as §2, §3

[7] = Decolorization of dyes; parameters: key to Decolorization of Indigocarmine, Time 30 min / Decolorization of Indigocarmine, Time 90 min: −: no visually detectable change; +: visually detectable fading of the colour; ++: considerable fading of the colour; +++: complete/almost complete decolorization; conditions: 50° C., pH 6; for Decolorization of Indigocarmine, Time 30 min / Decolorization of Indigocarmine, Time 90 min: dye 12 mg/100 ml
Protocol: as §5

[8] = Redox potential, Pt-AgCl/KCl microelectrode; type: physicochemical; conditions: pH 5.0
Protocol: as §4

[9] = 20 nkat/g, mediator 2 mg/g, 40° C.
[10] = 200 nkat/g, mediator 0 mg/g, 40° C.
[11] = 200 nkat/g, mediator 0 mg/g, 60° C.
[12] = 200 nkat/g, mediator 10 mg/g, 40° C.
[13] = 200 nkat/g, mediator 10 mg/g, 50° C.
[14] = 200 nkat/g, mediator 10 mg/g, 60° C.
[15] = enzyme 20 nkat/100 ml, mediator 0 mg/100 ml
[16] = enzyme 20 nkat/100 ml, mediator 1 mg/100 ml
[17] = enzyme 200 nkat/100 ml, mediator 0 mg/100 ml
[18] = enzyme 200 nkat/100 ml, mediator 10 mg/100 ml

B1: TaLcc1: Recombinant Thielavia arenaria ALKO4197 laccase 1 (SEQ ID NO: 12) produced in Trichoderma reesei strains RF5597/RF5598 (protein)
chain: MKSWAAAVALMVGILSPHAAAAPPANPVQRDMLQVLEARQSGPTCNTPSNRACWTNGFDINTDYEVSTPNTGRTVAYQLTLTEKENWIGPDGVLKNVVMLVNDKIIGPTIRANWGDNIEVTVINNLKTNGTSMHWHGLRQLGNVFNDGANGVTECPIPPKGGRKTYKFRATQYGTSWYHSHFSAQYGNGVVGTIQIDGPASLPYDIDLGVFPLMDYYYRSADELVHFTQSNGAPPSDNVLFNGTARHPETGAGQWYNVTLTPGKRHRLRIINTSTDNHFQVSLVGHNMTVIATDMVPVNAFTVSSLFLAVGQRYDVTIDANSPVGNYWFNVTFGDGLCGSSNNKFPAAIFRYQGAPATLPTDQGLPVPNHMCLDNLNLTPVVTRSAPVNNFVKRPSNTLGVTLDIGGTPLFVWKVNGSAINVDWGKPILDYVMSGNTSYPVSDNIVQVDAVDQWTYWLIENDPTNPIVSLPHPMHLHGHDFLVLGRSPDELPSAGVRHIFDPAKDLPRLKGNNPVRRDVTMLPAGGWLLLAFKTDNPGAWLFHCHIAWHVSGGLSVDFLERPNDLRTQLNSNAKRADRDDFNRVCREWNAYWPTNPFPKIDSGLRHRFVEESEWMVR
modifications: Thielavia arenaria ALKO4197; (1)..(617) Deduced amino acid sequence of Thielavia arenaria ALKO4197 laccase 1 (Ta Lcc1)
In the case of B1, the “Specific activity on syringaldazine” value [1] is reported as 340 nkat/mg, the “Grass L*” value [2, 9] is reported as 80.16 and the “Grass a*” value [2, 9] is reported as −0.73. For the same molecule, the “Grass b*” value [2, 9] was 16.20, the “Grass L*” value [2, 10] was 80.25 and the “Grass a*” value [2, 10] was −4.22. The “Grass b*” value [2, 10] was 17.41, the “Grass L*” value [2, 11] was 79.38 and the “Grass a*” value [2, 11] was −4.19. The “Grass b*” value [2, 11] was 17.77, the “Grass L*” value [2, 12] was 80.34 and the “Grass a*” value [2, 12] was 0.47. The “Grass b*” value [2, 12] was 16.51, the “Grass L*” value [2, 13] was 80.60 and the “Grass a*” value [2, 13] was −0.18. For the same molecule, the “Grass b*” value [2, 13] was 17.65, the “Grass L*” value [2, 14] was 80.6 and the “Grass a*” value [2, 14] was 0.02. For the same molecule, the “Grass b*” value [2, 14] was 18.71, the pI [3] was 5.5-6.9 and the “Specific activity on guaiacol” value [4] was 61 nkat/mg. For the same molecule, the “Decolorization of Remazol Brilliant Blue, Time 30 min” value [5, 15] was “−”, the “Decolorization of Remazol Brilliant Blue, Time 90 min” value [5, 15] was “−” and the “Decolorization of Remazol Brilliant Blue, Time 30 min” value [5, 16] was “−”. For the same molecule, the “Decolorization of Remazol Brilliant Blue, Time 90 min” value [5, 16] was “−”, the “Decolorization of Cibacron Brilliant Red 3B-P, Time 30 min” value [5, 17] was “−” and the “Decolorization of Cibacron Brilliant Red 3B-P, Time 90 min” value [5, 17] was “−”. The “Decolorization of Pontamine Bast Orange GRN, Time 30 min” value [5, 17] was “−”, the “Decolorization of Pontamine Bast Orange GRN, Time 90 min” value [5, 17] was “−” and the “Decolorization of Remazol Brilliant Blue, Time 30 min” value [5, 17] was “−”. For the same molecule, the “Decolorization of Remazol Brilliant Blue, Time 90 min” value [5, 17] was “−”, the “Decolorization of Cibacron Brilliant Red 3B-P, Time 30 min” value [5, 18] was “+++” and the “Decolorization of Cibacron Brilliant Red 3B-P, Time 90 min” value [5, 18] was “+++”. The “Decolorization of Pontamine Bast Orange GRN, Time 30 min” value [5, 18] was “+”, the “Decolorization of Pontamine Bast Orange GRN, Time 90 min” value [5, 18] was “+” and the “Decolorization of Remazol Brilliant Blue, Time 30 min” value [5, 18] was “++”. The “Decolorization of Remazol Brilliant Blue, Time 90 min” value [5, 18] was “++”, the “Tea L*” value [6, 9] was 77.17 and the “Tea a*” value [6, 9] was 4.65. The “Tea b*” value [6, 9] was 24.40, the “Tea L*” value [6, 10] was 75.99 and the “Tea a*” value [6, 10] was 5.59. For the same molecule, the “Tea b*” value [6, 10] was 23.54, the “Tea L*” value [6, 11] was 76.98 and the “Tea a*” value [6, 11] was 4.98. The “Tea b*” value [6, 11] was 21.20, the “Tea L*” value [6, 12] was 78.77 and the “Tea a*” value [6, 12] was 3.93. The “Tea b*” value [6, 12] was 24.97, the “Tea L*” value [6, 13] was 79.52 and the “Tea a*” value [6, 13] was 3.45. For the same molecule, the “Tea b*” value [6, 13] was 23.74, the “Tea L*” value [6, 14] was 81.69 and the “Tea a*” value [6, 14] was 2.91. For the same molecule, the “Tea b*” value [6, 14] was 22.29, the “Decolorization of Indigocarmine, Time 30 min” value [7, 16] was “+” and the “Decolorization of Indigocarmine, Time 90 min” value [7, 16] was “+++”. For the same molecule, the “Decolorization of Indigocarmine, Time 30 min” value [7, 17] was “−”, the “Decolorization of Indigocarmine, Time 90 min” value [7, 17] was “−” and the “Decolorization of Indigocarmine, Time 30 min” value [7, 18] was “+++”. The “Decolorization of Indigocarmine, Time 90 min” value [7, 18] was “+++”, the “time until blue colour of Indigocarmine had turned to light yellow” value ([7]; in the presence of the mediator) was under 30 min and the “E^0” value [8] was 560 mV.
